# Reference: the supplement of paper PMC9112550, “Optimization of the antimicrobial peptide Bac7 by deep mutational scanning” (BMC Biology, 2022)
# Test system: Escherichia coli TOP10
# Experiment: shrunken log2 fold change of peptide-encoding DNA abundance (4.5 h post-induction vs induction); higher = less antimicrobial activity (less host growth inhibition)
# Settings: time post-induction: 4.5 h; library: site-saturation at positions 5, 18, 19, 20
# 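Also: peptides expressed intracellularly from a pBAD plasmid library in pooled LB shake-flask culture, induced with 0.3% L-arabinose, DNA abundance read by NGS, three biological replicates, DESeq2 with apeglm shrinkage.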
row,Sequence,shrunken log2 fold change
1,RRIRERPPRLPRPRPRPCGNPRP,-0.00264
2,RRIRSRPPRLPRPRPRPDAHPRP,0.0464
3,RRIRYRPPRLPRPRPRPSRHPRP,-0.649
4,RRIRGRPPRLPRPRPRPGPDPRP,0.62
5,RRIRPRPPRLPRPRPRPNNDPRP,-0.544
6,RRIRARPPRLPRPRPRPLLWPRP,1.94
7,RRIRQRPPRLPRPRPRPNAEPRP,0.053
8,RRIRDRPPRLPRPRPRPAFHPRP,-0.193
9,RRIRERPPRLPRPRPRPCIHPRP,-0.229
10,RRIRPRPPRLPRPRPRPDVIPRP,-0.0251
11,RRIRNRPPRLPRPRPRPECHPRP,-0.0505
12,RRIRFRPPRLPRPRPRPCERPRP,-0.141
13,RRIRLRPPRLPRPRPRPTMNPRP,-0.362
14,RRIRFRPPRLPRPRPRPVDEPRP,0.0494
15,RRIRERPPRLPRPRPRPPFWPRP,-0.0269
16,RRIRMRPPRLPRPRPRPPHAPRP,1.65
17,RRIRSRPPRLPRPRPRPFKVPRP,-0.0212
18,RRIRVRPPRLPRPRPRPDCRPRP,-0.0921
19,RRIRRRPPRLPRPRPRPKNKPRP,0.294
20,RRIRMRPPRLPRPRPRPENDPRP,3.77
21,RRIRHRPPRLPRPRPRPNYNPRP,-0.89
22,RRIRVRPPRLPRPRPRPGGLPRP,0.00797
23,RRIRTRPPRLPRPRPRPRTTPRP,0.419
24,RRIRNRPPRLPRPRPRPEHGPRP,-0.0132
25,RRIRLRPPRLPRPRPRPRHDPRP,0.0303
26,RRIRHRPPRLPRPRPRPEGFPRP,-0.078
27,RRIRNRPPRLPRPRPRPYVYPRP,-1.31
28,RRIRRRPPRLPRPRPRPVCSPRP,0.225

row,Sequence,shrunken log2 fold change
1,RRIRNRPPRLPRPRPRPSEMPRP,-0.0844
2,RRIRMRPPRLPRPRPRPIDPPRP,-0.0553
3,RRIRYRPPRLPRPRPRPMREPRP,0.529
4,RRIRPRPPRLPRPRPRPDVQPRP,0.234
5,RRIRWRPPRLPRPRPRPIVPPRP,0.138
6,RRIRLRPPRLPRPRPRPNYEPRP,-0.416
7,RRIRNRPPRLPRPRPRPFIVPRP,-0.279
8,RRIRMRPPRLPRPRPRPEMVPRP,0.0598
9,RRIRARPPRLPRPRPRPQALPRP,0.274
10,RRIRQRPPRLPRPRPRPNWRPRP,0.107
11,RRIRPRPPRLPRPRPRPVLLPRP,0.00267
12,RRIRNRPPRLPRPRPRPKPCPRP,0.159
13,RRIRSRPPRLPRPRPRPWSNPRP,-0.0394
14,RRIRERPPRLPRPRPRPLTCPRP,-0.149
15,RRIRLRPPRLPRPRPRPRNTPRP,-0.0367
16,RRIRARPPRLPRPRPRPPFFPRP,0.603
17,RRIRCRPPRLPRPRPRPETRPRP,0.209
18,RRIRYRPPRLPRPRPRPCLDPRP,-0.125
19,RRIRNRPPRLPRPRPRPWYGPRP,-0.56
20,RRIRWRPPRLPRPRPRPPHAPRP,1.04
21,RRIRYRPPRLPRPRPRPLFVPRP,-0.507
22,RRIRQRPPRLPRPRPRPVEFPRP,0.0188
23,RRIRGRPPRLPRPRPRPCDHPRP,0.135
24,RRIRRRPPRLPRPRPRPFNQPRP,-0.0554
25,RRIRLRPPRLPRPRPRPTNKPRP,-0.264
26,RRIRARPPRLPRPRPRPKSPPRP,0.425
27,RRIRHRPPRLPRPRPRPMHVPRP,-0.0591
